# Experimental data taken from PMC314469, “Protein Interaction Networks by Proteome Peptide Scanning” (PLoS Biology, 2004).
# T1: Rvs167 SH3 (RV167_YEAST), P39743
# T1 chain: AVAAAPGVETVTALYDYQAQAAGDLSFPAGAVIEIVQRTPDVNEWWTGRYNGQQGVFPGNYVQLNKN
# T2: Boi2 SH3 (BOI2_YEAST), P39969
# T2 chain: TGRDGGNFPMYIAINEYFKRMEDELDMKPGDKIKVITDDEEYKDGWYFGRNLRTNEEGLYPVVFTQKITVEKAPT
# T3: Yfr024 SH3 (LSB3_YEAST), P43603
# T3 chain: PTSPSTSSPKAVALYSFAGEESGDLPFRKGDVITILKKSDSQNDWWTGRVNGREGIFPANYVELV
# T4: Boi1 SH3 (BOI1_YEAST), P38041
# T4 chain: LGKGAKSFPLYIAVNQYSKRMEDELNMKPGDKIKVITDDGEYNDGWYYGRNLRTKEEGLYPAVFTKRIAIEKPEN
# T5: Myo5 SH3 (MYO5_YEAST), Q04439
# T5 chain: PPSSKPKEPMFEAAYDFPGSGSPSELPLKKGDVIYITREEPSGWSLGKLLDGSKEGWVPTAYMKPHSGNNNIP
# T6: Yhr016c SH3 (YSC84_YEAST), P32793
# T6 chain: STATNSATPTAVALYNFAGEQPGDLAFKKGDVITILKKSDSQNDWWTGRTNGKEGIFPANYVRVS
# Biological target: T1, Rvs167 SH3 (RV167_YEAST), P39743
# Experiment: SPOT array
row,Binder,"normalised SPOT signal, Boehringer light units (BLU); mean over the file's lines of this peptide"
1,GQQKRFSPSLPSAV [YKL088W 110-123],111
2,GKDHRLAPNGPGMH [YDR333C 253-266],3.1
3,GIMIKAKPSSPYTY [YLR260W 30-43],248
4,GRSLRKRPTSPSIS [YJR059W 48-61],1120
5,GRHLKNIPRIPIFS [YLR106C 2506-2519],176
6,GLMSKLGPNLPASI [YLR092W 403-416],275
7,GKMVKWGPLRPFLS [YOL072W 279-292],1050
8,GLDLKWEPSTPQRK [YLR460C 162-175],73
9,GQIDRDKPSEPERT [YJL184W 45-58],47.7
10,GLVLRSTPVIPDMK [YPR019W 330-343],5260
11,GNNSRNIPPPPPPP [YMR089C 148-161],49.6
12,GLNLKWEPSTPQRN [YCR102C 154-167],10.9
13,GIKVKRIPYSPKSI [YMR309C 639-652],57.5
14,GHKKKNLPKFPKNK [YDL051W 238-251],31.7

# Biological target: T2, Boi2 SH3 (BOI2_YEAST), P39969
# Experiment: SPOT array
row,Binder,"normalised SPOT signal, Boehringer light units (BLU); mean over the file's lines of this peptide"
1,GQQKRFSPSLPSAV [YKL088W 110-123],9.3
2,GKDHRLAPNGPGMH [YDR333C 253-266],4.7
3,GIMIKAKPSSPYTY [YLR260W 30-43],53.5
4,GRSLRKRPTSPSIS [YJR059W 48-61],119
5,GRHLKNIPRIPIFS [YLR106C 2506-2519],6.1
6,GLMSKLGPNLPASI [YLR092W 403-416],40
7,GKMVKWGPLRPFLS [YOL072W 279-292],153
8,GLDLKWEPSTPQRK [YLR460C 162-175],6.1
9,GQIDRDKPSEPERT [YJL184W 45-58],21
10,GLVLRSTPVIPDMK [YPR019W 330-343],126
11,GNNSRNIPPPPPPP [YMR089C 148-161],14.2
12,GLNLKWEPSTPQRN [YCR102C 154-167],4.6
13,GIKVKRIPYSPKSI [YMR309C 639-652],1.5
14,GHKKKNLPKFPKNK [YDL051W 238-251],23.1

# Biological target: T3, Yfr024 SH3 (LSB3_YEAST), P43603
# Experiment: SPOT array
row,Binder,"normalised SPOT signal, Boehringer light units (BLU); mean over the file's lines of this peptide"
1,GQQKRFSPSLPSAV [YKL088W 110-123],697
2,GKDHRLAPNGPGMH [YDR333C 253-266],29.4
3,GIMIKAKPSSPYTY [YLR260W 30-43],662
4,GRSLRKRPTSPSIS [YJR059W 48-61],440
5,GRHLKNIPRIPIFS [YLR106C 2506-2519],947
6,GLMSKLGPNLPASI [YLR092W 403-416],606
7,GKMVKWGPLRPFLS [YOL072W 279-292],1990
8,GLDLKWEPSTPQRK [YLR460C 162-175],1010
9,GQIDRDKPSEPERT [YJL184W 45-58],68.7
10,GLVLRSTPVIPDMK [YPR019W 330-343],2380
11,GNNSRNIPPPPPPP [YMR089C 148-161],62
12,GLNLKWEPSTPQRN [YCR102C 154-167],1020
13,GIKVKRIPYSPKSI [YMR309C 639-652],178
14,GHKKKNLPKFPKNK [YDL051W 238-251],594

# Biological target: T4, Boi1 SH3 (BOI1_YEAST), P38041
# Experiment: SPOT array
row,Binder,"normalised SPOT signal, Boehringer light units (BLU); mean over the file's lines of this peptide"
1,GQQKRFSPSLPSAV [YKL088W 110-123],1200
2,GKDHRLAPNGPGMH [YDR333C 253-266],2160
3,GIMIKAKPSSPYTY [YLR260W 30-43],69.6
4,GRSLRKRPTSPSIS [YJR059W 48-61],370
5,GRHLKNIPRIPIFS [YLR106C 2506-2519],702
6,GLMSKLGPNLPASI [YLR092W 403-416],118
7,GKMVKWGPLRPFLS [YOL072W 279-292],64.2
8,GLDLKWEPSTPQRK [YLR460C 162-175],2030
9,GQIDRDKPSEPERT [YJL184W 45-58],15
10,GLVLRSTPVIPDMK [YPR019W 330-343],116
11,GNNSRNIPPPPPPP [YMR089C 148-161],61.5
12,GLNLKWEPSTPQRN [YCR102C 154-167],447
13,GIKVKRIPYSPKSI [YMR309C 639-652],136
14,GHKKKNLPKFPKNK [YDL051W 238-251],517

# Biological target: Sho1 SH3 (SHO1_YEAST), P40073
# Experiment: SPOT array
# Sho1 SH3 (SHO1_YEAST), P40073, sequence (P40073 295-366): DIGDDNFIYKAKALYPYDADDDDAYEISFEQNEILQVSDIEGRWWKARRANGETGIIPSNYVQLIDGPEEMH
row,Binder,"normalised SPOT signal, Boehringer light units (BLU); mean over the file's lines of this peptide"
1,GQQKRFSPSLPSAV [YKL088W 110-123],47.2
2,GKDHRLAPNGPGMH [YDR333C 253-266],36.4
3,GIMIKAKPSSPYTY [YLR260W 30-43],62.2
4,GRSLRKRPTSPSIS [YJR059W 48-61],44.9
5,GRHLKNIPRIPIFS [YLR106C 2506-2519],198
6,GLMSKLGPNLPASI [YLR092W 403-416],63.1
7,GKMVKWGPLRPFLS [YOL072W 279-292],148
8,GLDLKWEPSTPQRK [YLR460C 162-175],62.6
9,GQIDRDKPSEPERT [YJL184W 45-58],43.8
10,GLVLRSTPVIPDMK [YPR019W 330-343],60.9
11,GNNSRNIPPPPPPP [YMR089C 148-161],28.3
12,GLNLKWEPSTPQRN [YCR102C 154-167],62.8
13,GIKVKRIPYSPKSI [YMR309C 639-652],15.1
14,GHKKKNLPKFPKNK [YDL051W 238-251],4690

# Biological target: T5, Myo5 SH3 (MYO5_YEAST), Q04439
# Experiment: SPOT array
row,Binder,"normalised SPOT signal, Boehringer light units (BLU); mean over the file's lines of this peptide"
1,GQQKRFSPSLPSAV [YKL088W 110-123],728
2,GKDHRLAPNGPGMH [YDR333C 253-266],218
3,GIMIKAKPSSPYTY [YLR260W 30-43],236
4,GRSLRKRPTSPSIS [YJR059W 48-61],820
5,GRHLKNIPRIPIFS [YLR106C 2506-2519],1040
6,GLMSKLGPNLPASI [YLR092W 403-416],287
7,GKMVKWGPLRPFLS [YOL072W 279-292],645
8,GLDLKWEPSTPQRK [YLR460C 162-175],164
9,GQIDRDKPSEPERT [YJL184W 45-58],100
10,GLVLRSTPVIPDMK [YPR019W 330-343],209
11,GNNSRNIPPPPPPP [YMR089C 148-161],10300
12,GLNLKWEPSTPQRN [YCR102C 154-167],105
13,GIKVKRIPYSPKSI [YMR309C 639-652],391
14,GHKKKNLPKFPKNK [YDL051W 238-251],789

# Biological target: T6, Yhr016c SH3 (YSC84_YEAST), P32793
# Experiment: SPOT array
row,Binder,"normalised SPOT signal, Boehringer light units (BLU); mean over the file's lines of this peptide"
1,GQQKRFSPSLPSAV [YKL088W 110-123],140
2,GKDHRLAPNGPGMH [YDR333C 253-266],24.5
3,GIMIKAKPSSPYTY [YLR260W 30-43],197
4,GRSLRKRPTSPSIS [YJR059W 48-61],106
5,GRHLKNIPRIPIFS [YLR106C 2506-2519],69.5
6,GLMSKLGPNLPASI [YLR092W 403-416],41.6
7,GKMVKWGPLRPFLS [YOL072W 279-292],984
8,GLDLKWEPSTPQRK [YLR460C 162-175],342
9,GQIDRDKPSEPERT [YJL184W 45-58],37.9
10,GLVLRSTPVIPDMK [YPR019W 330-343],302
11,GNNSRNIPPPPPPP [YMR089C 148-161],15.8
12,GLNLKWEPSTPQRN [YCR102C 154-167],152
13,GIKVKRIPYSPKSI [YMR309C 639-652],15.9
14,GHKKKNLPKFPKNK [YDL051W 238-251],47.5
